Reference: US20140044713A1

Assays:
[1] = biological target: Lgr4 (endogenous, or expression construct whose tag is not stated) (human) (UniProt Q9BXB1); assay: TAP (anti-FLAG, anti-HA) + mass spectrometry, bait stably expressed in LS174T cells, Exp 7, prey LGR4
[2] = biological target: Lgr5 (endogenous, or expression construct whose tag is not stated) (human) (UniProt O75473); assay: TAP (anti-FLAG, anti-HA) + mass spectrometry, bait stably expressed in LS174T cells, Exp 7, prey LGR5
[3] = biological target: LRP5 (endogenous) (human) (UniProt O75197); assay: TAP (anti-FLAG, anti-HA) + mass spectrometry, bait stably expressed in LS174T cells, Exp 7, prey LRP5
Sequence of LRP5 (endogenous) (human) (O75197 32-1615): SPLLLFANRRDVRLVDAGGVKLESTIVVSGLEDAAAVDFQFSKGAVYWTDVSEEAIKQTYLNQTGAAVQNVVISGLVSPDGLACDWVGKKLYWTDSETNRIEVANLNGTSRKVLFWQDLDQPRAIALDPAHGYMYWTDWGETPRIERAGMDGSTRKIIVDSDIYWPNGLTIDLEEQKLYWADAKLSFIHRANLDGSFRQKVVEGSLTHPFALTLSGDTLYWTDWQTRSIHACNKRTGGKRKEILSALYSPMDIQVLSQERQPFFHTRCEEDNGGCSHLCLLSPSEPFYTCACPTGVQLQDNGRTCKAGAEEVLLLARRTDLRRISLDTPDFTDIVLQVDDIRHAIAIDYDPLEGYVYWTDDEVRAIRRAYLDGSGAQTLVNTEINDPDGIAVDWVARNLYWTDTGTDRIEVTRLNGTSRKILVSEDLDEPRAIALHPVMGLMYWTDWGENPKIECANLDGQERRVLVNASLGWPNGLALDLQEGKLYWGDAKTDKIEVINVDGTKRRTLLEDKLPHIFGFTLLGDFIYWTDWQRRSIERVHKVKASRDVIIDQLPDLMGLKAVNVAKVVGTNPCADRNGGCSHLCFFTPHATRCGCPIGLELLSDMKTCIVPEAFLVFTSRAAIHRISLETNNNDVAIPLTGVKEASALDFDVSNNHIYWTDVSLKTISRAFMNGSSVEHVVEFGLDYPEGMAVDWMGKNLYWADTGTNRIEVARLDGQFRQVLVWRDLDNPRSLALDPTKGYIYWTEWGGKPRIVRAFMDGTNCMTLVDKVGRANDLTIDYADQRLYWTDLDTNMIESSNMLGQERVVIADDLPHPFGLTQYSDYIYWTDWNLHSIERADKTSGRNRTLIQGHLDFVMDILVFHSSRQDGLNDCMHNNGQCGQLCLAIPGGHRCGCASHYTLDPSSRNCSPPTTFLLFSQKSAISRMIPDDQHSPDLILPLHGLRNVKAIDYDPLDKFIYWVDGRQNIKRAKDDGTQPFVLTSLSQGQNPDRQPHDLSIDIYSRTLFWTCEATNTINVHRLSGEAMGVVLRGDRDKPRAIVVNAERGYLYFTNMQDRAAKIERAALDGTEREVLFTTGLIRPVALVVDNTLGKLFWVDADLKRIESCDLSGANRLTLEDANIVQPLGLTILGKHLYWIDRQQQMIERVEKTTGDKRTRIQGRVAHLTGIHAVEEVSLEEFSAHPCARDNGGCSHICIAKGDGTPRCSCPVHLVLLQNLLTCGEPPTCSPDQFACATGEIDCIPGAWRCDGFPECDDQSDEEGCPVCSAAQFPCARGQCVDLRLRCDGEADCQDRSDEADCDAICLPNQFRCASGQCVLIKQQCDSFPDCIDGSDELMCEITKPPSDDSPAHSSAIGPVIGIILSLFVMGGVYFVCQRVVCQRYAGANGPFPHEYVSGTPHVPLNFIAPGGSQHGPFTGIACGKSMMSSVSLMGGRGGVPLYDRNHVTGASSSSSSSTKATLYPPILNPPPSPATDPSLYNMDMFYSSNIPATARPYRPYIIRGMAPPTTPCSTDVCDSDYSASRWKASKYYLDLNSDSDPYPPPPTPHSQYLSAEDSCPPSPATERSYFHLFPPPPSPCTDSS

[4] = biological target: LRP6 (endogenous) (human) (UniProt O75581); assay: TAP (anti-FLAG, anti-HA) + mass spectrometry, bait stably expressed in LS174T cells, Exp 7, prey LRP6
Sequence of LRP6 (endogenous) (human) (O75581 20-1613): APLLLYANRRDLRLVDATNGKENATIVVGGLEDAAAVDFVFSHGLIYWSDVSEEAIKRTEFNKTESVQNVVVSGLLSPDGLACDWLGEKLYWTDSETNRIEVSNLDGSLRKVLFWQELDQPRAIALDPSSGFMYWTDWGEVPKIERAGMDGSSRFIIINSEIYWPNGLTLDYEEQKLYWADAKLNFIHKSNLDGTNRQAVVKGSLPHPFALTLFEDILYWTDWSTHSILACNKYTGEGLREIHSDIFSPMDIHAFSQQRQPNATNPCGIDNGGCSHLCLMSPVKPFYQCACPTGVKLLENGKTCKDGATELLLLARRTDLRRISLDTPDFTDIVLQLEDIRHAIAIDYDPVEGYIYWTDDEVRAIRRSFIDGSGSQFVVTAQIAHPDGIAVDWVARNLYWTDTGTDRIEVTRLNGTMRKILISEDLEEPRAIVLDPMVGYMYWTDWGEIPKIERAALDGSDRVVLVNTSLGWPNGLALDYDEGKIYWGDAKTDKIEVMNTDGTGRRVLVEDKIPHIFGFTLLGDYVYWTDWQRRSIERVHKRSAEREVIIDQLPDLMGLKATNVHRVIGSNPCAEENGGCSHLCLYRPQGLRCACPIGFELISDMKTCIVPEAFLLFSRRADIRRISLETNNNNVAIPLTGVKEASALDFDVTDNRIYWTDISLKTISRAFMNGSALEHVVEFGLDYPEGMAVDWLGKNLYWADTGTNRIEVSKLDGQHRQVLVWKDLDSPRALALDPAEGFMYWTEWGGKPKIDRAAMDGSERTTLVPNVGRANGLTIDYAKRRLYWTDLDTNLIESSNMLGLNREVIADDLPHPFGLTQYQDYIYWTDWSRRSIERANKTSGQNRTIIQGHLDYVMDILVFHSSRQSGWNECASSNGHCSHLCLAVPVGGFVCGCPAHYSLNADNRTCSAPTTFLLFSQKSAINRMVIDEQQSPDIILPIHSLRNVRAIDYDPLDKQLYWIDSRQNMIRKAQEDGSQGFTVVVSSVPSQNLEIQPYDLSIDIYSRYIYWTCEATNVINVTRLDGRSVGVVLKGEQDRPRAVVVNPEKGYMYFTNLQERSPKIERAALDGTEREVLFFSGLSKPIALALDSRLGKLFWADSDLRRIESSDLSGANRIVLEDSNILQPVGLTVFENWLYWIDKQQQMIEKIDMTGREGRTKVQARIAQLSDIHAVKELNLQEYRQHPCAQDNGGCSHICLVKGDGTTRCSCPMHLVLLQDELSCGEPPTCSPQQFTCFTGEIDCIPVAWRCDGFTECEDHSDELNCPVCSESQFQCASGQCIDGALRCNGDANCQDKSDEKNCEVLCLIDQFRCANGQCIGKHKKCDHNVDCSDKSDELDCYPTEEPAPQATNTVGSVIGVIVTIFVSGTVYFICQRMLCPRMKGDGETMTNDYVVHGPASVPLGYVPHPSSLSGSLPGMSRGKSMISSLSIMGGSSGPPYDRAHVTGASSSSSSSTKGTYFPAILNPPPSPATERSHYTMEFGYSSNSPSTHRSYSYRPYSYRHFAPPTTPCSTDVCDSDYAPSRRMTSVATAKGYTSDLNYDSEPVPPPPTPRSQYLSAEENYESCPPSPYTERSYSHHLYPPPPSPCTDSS

[5] = biological target: Lgr4 (endogenous, or expression construct whose tag is not stated) (human) (UniProt Q9BXB1); assay: cell-based or functional assay
[6] = biological target: LRP6 (endogenous) (human) (UniProt O75581); assay: TAP (anti-FLAG, anti-HA) + mass spectrometry, bait stably expressed in LS174T cells, Exp 3, prey LRP6
[7] = biological target: LRP5 (endogenous) (human) (UniProt O75197); assay: TAP (anti-FLAG, anti-HA) + mass spectrometry, bait stably expressed in LS174T cells, Exp 4, prey LRP5
[8] = biological target: LRP6 (endogenous) (human) (UniProt O75581); assay: TAP (anti-FLAG, anti-HA) + mass spectrometry, bait stably expressed in LS174T cells, Exp 4, prey LRP6
[9] = biological target: LRP5 (endogenous) (human) (UniProt O75197); assay: TAP (anti-FLAG, anti-HA) + mass spectrometry, bait stably expressed in LS174T cells, Exp 5, prey LRP5
[10] = biological target: LRP6 (endogenous) (human) (UniProt O75581); assay: TAP (anti-FLAG, anti-HA) + mass spectrometry, bait stably expressed in LS174T cells, Exp 5, prey LRP6
[11] = biological target: LRP5 (endogenous) (human) (UniProt O75197); assay: TAP (anti-FLAG, anti-HA) + mass spectrometry, bait stably expressed in LS174T cells, Exp 6, prey LRP5
[12] = biological target: Frz6 (endogenous, LS174T cells) (human) (UniProt O60353); assay: TAP (anti-FLAG, anti-HA) + mass spectrometry, bait stably expressed in LS174T cells, Exp 3, prey Frzd6
Sequence of Frz6 (endogenous, LS174T cells) (human) (O60353 19-706): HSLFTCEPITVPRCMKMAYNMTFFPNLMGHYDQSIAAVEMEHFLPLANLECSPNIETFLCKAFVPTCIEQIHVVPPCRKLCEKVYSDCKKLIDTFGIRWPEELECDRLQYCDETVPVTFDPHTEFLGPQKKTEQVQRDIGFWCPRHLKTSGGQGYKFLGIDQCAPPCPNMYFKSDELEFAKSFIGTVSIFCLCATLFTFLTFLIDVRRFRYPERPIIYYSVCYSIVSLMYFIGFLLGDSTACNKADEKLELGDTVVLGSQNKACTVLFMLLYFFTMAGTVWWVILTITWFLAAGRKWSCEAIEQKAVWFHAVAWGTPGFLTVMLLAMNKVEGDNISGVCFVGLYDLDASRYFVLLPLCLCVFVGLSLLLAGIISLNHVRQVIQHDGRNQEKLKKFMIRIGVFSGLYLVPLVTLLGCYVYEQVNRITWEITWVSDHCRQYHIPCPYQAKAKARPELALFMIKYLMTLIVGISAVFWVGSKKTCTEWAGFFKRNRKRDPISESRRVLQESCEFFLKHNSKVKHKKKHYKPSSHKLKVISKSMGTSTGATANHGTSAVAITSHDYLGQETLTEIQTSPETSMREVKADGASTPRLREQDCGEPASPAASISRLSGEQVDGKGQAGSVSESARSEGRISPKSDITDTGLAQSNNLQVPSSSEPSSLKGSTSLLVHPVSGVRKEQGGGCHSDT

[13] = biological target: Frz6 (endogenous, LS174T cells) (human) (UniProt O60353); assay: TAP (anti-FLAG, anti-HA) + mass spectrometry, bait stably expressed in LS174T cells, Exp 4, prey Frzd6
[14] = biological target: Frz6 (endogenous, LS174T cells) (human) (UniProt O60353); assay: TAP (anti-FLAG, anti-HA) + mass spectrometry, bait stably expressed in LS174T cells, Exp 5, prey Frzd6
[15] = biological target: Frz6 (endogenous, LS174T cells) (human) (UniProt O60353); assay: TAP (anti-FLAG, anti-HA) + mass spectrometry, bait stably expressed in LS174T cells, Exp 6, prey Frzd6
[16] = biological target: Lgr5 (endogenous, or expression construct whose tag is not stated) (human) (UniProt O75473); assay: TAP (anti-FLAG, anti-HA) + mass spectrometry, bait stably expressed in LS174T cells, Exp 2, prey LGR5
[17] = biological target: LRP6 (endogenous) (human) (UniProt O75581); assay: TAP (anti-FLAG, anti-HA) + mass spectrometry, bait stably expressed in LS174T cells, Exp 2, prey LRP6
[18] = biological target: Frz5 (endogenous, LS174T cells) (human) (UniProt Q13467); assay: TAP (anti-FLAG, anti-HA) + mass spectrometry, bait stably expressed in LS174T cells, Exp 2, prey Frzd5
[19] = biological target: Frz7 (endogenous, LS174T cells) (human) (UniProt O75084); assay: TAP (anti-FLAG, anti-HA) + mass spectrometry, bait stably expressed in LS174T cells, Exp 2, prey Frzd7

Sequence of Lgr5 (endogenous, or expression construct whose tag is not stated) (human) (O75473 22-907): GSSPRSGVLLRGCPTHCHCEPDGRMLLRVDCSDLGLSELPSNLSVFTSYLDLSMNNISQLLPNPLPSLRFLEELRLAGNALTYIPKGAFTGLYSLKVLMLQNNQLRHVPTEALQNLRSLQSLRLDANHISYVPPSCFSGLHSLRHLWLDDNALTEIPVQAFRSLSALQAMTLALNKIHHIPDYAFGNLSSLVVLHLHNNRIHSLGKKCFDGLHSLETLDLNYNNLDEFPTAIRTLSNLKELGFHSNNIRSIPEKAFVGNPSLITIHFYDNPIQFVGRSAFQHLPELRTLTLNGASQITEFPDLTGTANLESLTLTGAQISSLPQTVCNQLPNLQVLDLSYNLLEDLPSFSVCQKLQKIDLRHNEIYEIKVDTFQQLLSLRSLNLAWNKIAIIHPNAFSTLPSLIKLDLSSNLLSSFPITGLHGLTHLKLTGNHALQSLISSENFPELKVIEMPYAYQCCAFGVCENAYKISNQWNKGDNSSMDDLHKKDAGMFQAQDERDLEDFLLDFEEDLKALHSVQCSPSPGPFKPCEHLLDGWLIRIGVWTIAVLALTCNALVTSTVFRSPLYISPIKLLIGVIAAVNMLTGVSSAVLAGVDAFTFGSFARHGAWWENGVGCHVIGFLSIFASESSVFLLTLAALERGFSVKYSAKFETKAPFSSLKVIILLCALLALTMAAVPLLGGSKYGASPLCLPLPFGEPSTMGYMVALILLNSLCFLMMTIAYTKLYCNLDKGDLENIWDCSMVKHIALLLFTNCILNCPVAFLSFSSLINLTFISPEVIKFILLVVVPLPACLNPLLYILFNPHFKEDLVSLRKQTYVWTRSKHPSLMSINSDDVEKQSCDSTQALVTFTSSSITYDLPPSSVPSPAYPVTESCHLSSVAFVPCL

## tagged Frizzled5 (Frz5) (from UniProt Q13467 27-585) (receptor)
[1]
  # unique peptides: 10
  MASCOT Protein score (MudPit): 456
  assigned spectra: 30
[2]
  # unique peptides: 2
  MASCOT Protein score (MudPit): 33
  assigned spectra: 2
[3]
  # unique peptides: 3
  MASCOT Protein score (MudPit): 166
  assigned spectra: 5
[4]
  # unique peptides: 10
  MASCOT Protein score (MudPit): 279
  assigned spectra: 14

## Rspo-1 (as added in the TOPflash assay of FIG. 5B) (from UniProt Q2MKA7 21-263) (ligand)
[5]
  TOPFlash activity, Wnt3A with Rspo-1 against Wnt3A alone, HEK293T cells: 12 fold

## FLAG/HA-tagged Lgr5 (from UniProt O75473 22-907) (receptor)
[6]
  # unique peptides: 3
  MASCOT Protein score (MudPit): 71
  assigned spectra: 3
[7]
  # unique peptides: 2
  MASCOT Protein score (MudPit): 91
  assigned spectra: 3
[8]
  # unique peptides: 2
  MASCOT Protein score (MudPit): 43
  assigned spectra: 2
[9]
  # unique peptides: 3
  MASCOT Protein score (MudPit): 122
  assigned spectra: 3
[10]
  # unique peptides: 6
  MASCOT Protein score (MudPit): 91
  assigned spectra: 6
[11]
  # unique peptides: 1
  MASCOT Protein score (MudPit): 41
  assigned spectra: 1
[12]
  # unique peptides: 1
  MASCOT Protein score (MudPit): 53
  assigned spectra: 1
[13]
  # unique peptides: 1
  MASCOT Protein score (MudPit): 94
  assigned spectra: 2
[14]
  # unique peptides: 6
  MASCOT Protein score (MudPit): 193
  assigned spectra: 11
[15]
  # unique peptides: 5
  MASCOT Protein score (MudPit): 140
  assigned spectra: 8

## FLAG/HA-tagged Lgr4 (from UniProt Q9BXB1 25-951) (receptor)
[16]
  # unique peptides: 7
  MASCOT Protein score (MudPit): 62
  assigned spectra: 10
[17]
  # unique peptides: 3
  MASCOT Protein score (MudPit): 32
  assigned spectra: 3
[18]
  # unique peptides: 1
  MASCOT Protein score (MudPit): 22
  assigned spectra: 1
[19]
  # unique peptides: 1
  MASCOT Protein score (MudPit): 87
  assigned spectra: 4
